# Tested on: Dynamic MAPTrix™ Laminin
substance,measurement,value
type IV bacterial collagenase,"enzymatic digestion monitored by SDS-PAGE (25:1 substrate:collagenase, 2 h, 37° C.)","the apparent molecular weight of various fractions from disgested Dynamic MAPTrix™ Laminin on a SDS-PAGE gel was 29, 18, and 12 kDa"

# Reference: patent publication US20150252148A1
